Here are results for two molecules from paper PMC2213029 (The Journal of Experimental Medicine, 2005).

In this test the target is T1, CD45-D1D2 (597–1213) C828S (human, UniProt P08575 622-1238, C828S, selenomethionine (Sel-Met) substituted in the crystals with the phosphopeptides).
T1 sequence (looked up): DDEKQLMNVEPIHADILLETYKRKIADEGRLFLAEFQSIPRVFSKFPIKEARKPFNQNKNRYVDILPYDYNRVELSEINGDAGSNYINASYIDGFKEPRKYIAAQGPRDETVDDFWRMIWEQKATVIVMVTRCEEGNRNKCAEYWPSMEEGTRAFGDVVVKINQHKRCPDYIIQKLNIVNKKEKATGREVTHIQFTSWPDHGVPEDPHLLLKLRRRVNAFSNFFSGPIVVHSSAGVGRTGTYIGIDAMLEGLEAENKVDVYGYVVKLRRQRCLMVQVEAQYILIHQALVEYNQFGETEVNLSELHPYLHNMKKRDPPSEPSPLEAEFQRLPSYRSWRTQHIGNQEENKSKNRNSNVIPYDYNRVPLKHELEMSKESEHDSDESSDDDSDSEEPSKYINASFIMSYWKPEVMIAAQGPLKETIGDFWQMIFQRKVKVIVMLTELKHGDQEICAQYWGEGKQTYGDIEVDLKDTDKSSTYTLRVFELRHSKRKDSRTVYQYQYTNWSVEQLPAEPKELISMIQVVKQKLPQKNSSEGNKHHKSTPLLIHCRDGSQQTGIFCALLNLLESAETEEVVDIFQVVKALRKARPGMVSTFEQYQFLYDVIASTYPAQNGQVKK
Nature of the test: crystal structure.

Non-standard residues stand in square brackets, D forms with d. No end group written: not given here. pY = N[C@@H](Cc1ccc(OP(=O)(O)O)cc1)C(=O)O

For QQQQNQL[pY]NELNLGRREE[pY]DVLDKRRG [CD3ζ ITAM-1 phosphopeptide (membrane proximal ITAM of the CD3ζ chain, both tyrosines phosphorylated)], the binding result was “binds”. Under NPT[pY]S [NPTpYS phosphopeptide derived from the polyoma middle T antigen] stands “binds”.
